According to patent publication US20180072815A1:

Target: commercially available anti-Stat3 antibody (Abcam)
Assay: ELISA, antibody coated directly at 1 µg/mL

his-probe (H-3) biotin labeled antibody
OD450 Values: 0.018 OD450
